The text below walks through data of paper PMC5021340.

This data set addresses Mig1 (Xanthophyllomyces dendrorhous) (UniProt A0A1C9UL02). The data set can be described thus: EMSA. As to conditions: 20 mM HEPES pH 7.9, 50 mM KCl, 1 mM DTT, 0.1 mM EDTA, 5% glycerol (+2.5%), 200 ug/ml BSA, 50 ng/ul poly(dI-dC), 0.05% NP-40, 20 fmol DNA, 10 ug Mig1 in 20 ul …. (In general: In EMSA bound probe runs differently from free probe, usually more slowly.)

Sequence of Mig1 (Xanthophyllomyces dendrorhous) (A0A1C9UL02 entry or part of it): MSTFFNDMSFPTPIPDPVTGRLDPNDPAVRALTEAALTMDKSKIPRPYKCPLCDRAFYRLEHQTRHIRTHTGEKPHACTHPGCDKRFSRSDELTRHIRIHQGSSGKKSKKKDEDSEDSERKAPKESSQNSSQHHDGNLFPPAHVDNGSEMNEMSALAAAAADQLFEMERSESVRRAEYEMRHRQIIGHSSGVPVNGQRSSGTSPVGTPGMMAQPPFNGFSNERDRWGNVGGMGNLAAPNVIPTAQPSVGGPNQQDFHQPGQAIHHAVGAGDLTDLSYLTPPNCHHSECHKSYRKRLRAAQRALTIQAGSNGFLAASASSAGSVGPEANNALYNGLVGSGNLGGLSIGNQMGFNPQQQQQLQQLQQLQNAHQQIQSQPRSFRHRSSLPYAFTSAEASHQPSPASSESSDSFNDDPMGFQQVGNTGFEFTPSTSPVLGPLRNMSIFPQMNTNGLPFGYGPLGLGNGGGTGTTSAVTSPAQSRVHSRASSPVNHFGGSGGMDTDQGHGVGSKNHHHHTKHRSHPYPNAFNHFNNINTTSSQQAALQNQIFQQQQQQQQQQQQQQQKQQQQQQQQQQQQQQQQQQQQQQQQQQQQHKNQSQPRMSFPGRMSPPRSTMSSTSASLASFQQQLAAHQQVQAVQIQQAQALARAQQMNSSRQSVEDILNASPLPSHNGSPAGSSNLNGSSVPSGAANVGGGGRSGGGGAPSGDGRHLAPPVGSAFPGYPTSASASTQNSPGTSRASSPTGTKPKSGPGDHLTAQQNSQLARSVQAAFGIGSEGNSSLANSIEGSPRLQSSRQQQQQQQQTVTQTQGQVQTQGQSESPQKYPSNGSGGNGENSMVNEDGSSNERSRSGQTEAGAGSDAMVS

Consider “GAAGATGATGCGGCGGCAACTGGTTCTGGGCTGGGGAACACCCTATTCGACCGGTTGAATGAGTCACAATCGGCCGGCAGCCCTGCTGCAGGCACCGGCGCAAGTGGCTCCGGACCGAAGCCTCGCCAGCAGTTGATCAAGCGAACCAAGCCGAACAATCCTGGCGCGCCTGGAGGAGCGGGAGCGGGAGGAGCAGCAGGTGATGCATC (double strand) [crtS promoter boxes C-D 209 bp]”, for which the binding entry is reported as “binds”.
